Source: article PMC5792436, “TT(N)mGCCTC inhibits archaeal family B DNA polymerases”

Experiments:
[1] = molecular target: Taq DNA polymerase (Fig. 4A) (UniProt P19821 1-832); experiment: EMSA; no Mg2+; 10 mM Tris-HCl pH 7.9, 50 mM KCl, 1 mM EDTA, 5% glycerol, 1 mM DTT, 25 ug/ml BSA; no MgCl2, no poly(dI-dC); 20 min at room temperature; 6% PAGE in 0.5X TBE; conditions: protein: commercial; label: 5' biotin
[2] = molecular target: T1, KOD DNA polymerase, purified (pET22b-KOD) (UniProt D0VWU9 1-774); experiment: EMSA; 2 nM DNA, no Mg2+; 10 mM Tris-HCl pH 7.9, 50 mM KCl, 1 mM EDTA, 5% glycerol, 1 mM DTT, 25 ug/ml BSA; no MgCl2, no poly(dI-dC); 20 min at room temperature; 6% PAGE in 0.5X TBE; conditions: protein: recombinant; tags: His; label: 5' biotin
T1 sequence: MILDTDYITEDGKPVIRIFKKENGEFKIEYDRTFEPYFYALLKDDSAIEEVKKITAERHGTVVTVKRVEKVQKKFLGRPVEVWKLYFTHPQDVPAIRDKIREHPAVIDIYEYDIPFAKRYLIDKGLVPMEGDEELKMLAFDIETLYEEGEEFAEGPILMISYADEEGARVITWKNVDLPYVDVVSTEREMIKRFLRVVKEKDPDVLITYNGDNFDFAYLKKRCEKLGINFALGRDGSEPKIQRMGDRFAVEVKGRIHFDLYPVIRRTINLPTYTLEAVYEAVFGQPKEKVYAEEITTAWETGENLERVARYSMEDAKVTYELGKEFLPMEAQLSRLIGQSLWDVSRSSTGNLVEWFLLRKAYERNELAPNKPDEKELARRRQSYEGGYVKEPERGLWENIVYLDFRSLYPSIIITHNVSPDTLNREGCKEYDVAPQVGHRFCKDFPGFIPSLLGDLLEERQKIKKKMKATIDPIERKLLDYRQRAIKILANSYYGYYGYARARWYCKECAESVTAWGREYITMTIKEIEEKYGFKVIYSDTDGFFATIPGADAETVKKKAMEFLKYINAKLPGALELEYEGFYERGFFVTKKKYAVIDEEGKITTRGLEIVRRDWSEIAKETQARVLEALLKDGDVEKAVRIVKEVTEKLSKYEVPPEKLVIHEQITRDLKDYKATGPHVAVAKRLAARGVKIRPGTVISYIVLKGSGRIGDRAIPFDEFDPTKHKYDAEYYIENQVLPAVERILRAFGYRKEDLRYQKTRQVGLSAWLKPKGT

Taq DNA polymerase (Fig. 4A), sequence (P19821 whole entry): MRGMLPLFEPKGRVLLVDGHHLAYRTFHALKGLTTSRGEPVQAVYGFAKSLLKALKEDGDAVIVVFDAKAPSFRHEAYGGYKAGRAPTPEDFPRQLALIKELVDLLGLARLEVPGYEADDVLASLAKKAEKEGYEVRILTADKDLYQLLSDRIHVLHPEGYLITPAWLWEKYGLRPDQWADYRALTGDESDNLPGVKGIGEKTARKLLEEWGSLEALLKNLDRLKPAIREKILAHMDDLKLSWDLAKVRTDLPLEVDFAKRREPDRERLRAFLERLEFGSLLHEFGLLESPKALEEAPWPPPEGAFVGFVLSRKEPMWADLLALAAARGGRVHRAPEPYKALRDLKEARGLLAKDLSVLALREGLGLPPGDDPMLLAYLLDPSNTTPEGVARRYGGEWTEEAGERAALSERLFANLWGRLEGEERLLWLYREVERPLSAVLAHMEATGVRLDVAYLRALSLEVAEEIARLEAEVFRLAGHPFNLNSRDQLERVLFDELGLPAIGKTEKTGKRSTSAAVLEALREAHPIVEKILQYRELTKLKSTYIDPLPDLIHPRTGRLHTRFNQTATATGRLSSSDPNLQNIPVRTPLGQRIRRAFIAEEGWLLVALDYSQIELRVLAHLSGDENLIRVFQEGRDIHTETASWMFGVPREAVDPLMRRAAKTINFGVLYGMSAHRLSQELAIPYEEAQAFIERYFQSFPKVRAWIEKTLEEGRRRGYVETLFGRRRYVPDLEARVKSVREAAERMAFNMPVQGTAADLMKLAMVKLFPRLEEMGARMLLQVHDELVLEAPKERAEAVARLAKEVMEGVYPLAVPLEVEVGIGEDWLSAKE

TACCGAGCTCTTACGCGTGCCTCTGACTTGCCTCAGAGC (ssDNA) [Bio-Olig2.5] was tested, and the binding result [1] was “no binding” and the Kd [2] was about 40 nM.
